Target: T1, His-tagged HSP110 (recombinant) (UniProt Q92598 1-858, non-covalent RED-Tris-NTA 2nd generation dye on the His tag)
T1 construct: recombinant HSP110, OriGene TP307102; also called recombinant HSP110; TP307102; source: bought: OriGene (TP307102)
Assay: MST; Monolith NT.115; His-tagged HSP110 labelled with RED-Tris-NTA 2nd generation, fixed at 50 nM; STAT6 titrated from 2.39 µM to 0.07 nM
Conditions: both partners purified

T1 sequence (Q92598 whole entry): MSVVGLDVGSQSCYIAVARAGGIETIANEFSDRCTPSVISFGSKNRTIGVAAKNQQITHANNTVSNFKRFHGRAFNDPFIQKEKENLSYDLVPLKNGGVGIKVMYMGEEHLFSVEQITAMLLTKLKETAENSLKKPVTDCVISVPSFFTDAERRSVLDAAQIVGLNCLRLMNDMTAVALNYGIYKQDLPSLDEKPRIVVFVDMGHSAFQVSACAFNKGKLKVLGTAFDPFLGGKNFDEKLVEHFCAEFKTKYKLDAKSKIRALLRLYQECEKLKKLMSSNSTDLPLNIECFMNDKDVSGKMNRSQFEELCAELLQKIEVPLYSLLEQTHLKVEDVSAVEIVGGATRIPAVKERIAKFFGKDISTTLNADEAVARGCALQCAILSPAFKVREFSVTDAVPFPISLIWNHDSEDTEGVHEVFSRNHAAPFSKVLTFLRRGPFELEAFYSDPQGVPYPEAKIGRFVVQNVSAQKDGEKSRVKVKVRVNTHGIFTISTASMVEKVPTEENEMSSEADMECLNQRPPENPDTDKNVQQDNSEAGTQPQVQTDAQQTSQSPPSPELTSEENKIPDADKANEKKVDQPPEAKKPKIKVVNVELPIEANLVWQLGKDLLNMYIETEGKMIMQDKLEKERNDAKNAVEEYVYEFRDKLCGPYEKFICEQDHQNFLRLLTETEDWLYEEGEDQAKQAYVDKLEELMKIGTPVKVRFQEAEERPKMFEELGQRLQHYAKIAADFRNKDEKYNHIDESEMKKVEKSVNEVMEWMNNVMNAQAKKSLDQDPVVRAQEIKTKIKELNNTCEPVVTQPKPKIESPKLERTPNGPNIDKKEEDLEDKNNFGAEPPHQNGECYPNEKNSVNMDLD

Kd: 26.7 ± 12.3 nM
B1: STAT6 (recombinant) (natural protein, UniProt P42226 1-847, looked up)
chain: MSLWGLVSKMPPEKVQRLYVDFPQHLRHLLGDWLESQPWEFLVGSDAFCCNLASALLSDTVQHLQASVGEQGEGSTILQHISTLESIYQRDPLKLVATFRQILQGEKKAVMEQFRHLPMPFHWKQEELKFKTGLRRLQHRVGEIHLLREALQKGAEAGQVSLHSLIETPANGTGPSEALAMLLQETTGELEAAKALVLKRIQIWKRQQQLAGNGAPFEESLAPLQERCESLVDIYSQLQQEVGAAGGELEPKTRASLTGRLDEVLRTLVTSCFLVEKQPPQVLKTQTKFQAGVRFLLGLRFLGAPAKPPLVRADMVTEKQARELSVPQGPGAGAESTGEIINNTVPLENSIPGNCCSALFKNLLLKKIKRCERKGTESVTEEKCAVLFSASFTLGPGKLPIQLQALSLPLVVIVHGNQDNNAKATILWDNAFSEMDRVPFVVAERVPWEKMCETLNLKFMAEVGTNRGLLPEHFLFLAQKIFNDNSLSMEAFQHRSVSWSQFNKEILLGRGFTFWQWFDGVLDLTKRCLRSYWSDRLIIGFISKQYVTSLLLNEPDGTFLLRFSDSEIGGITIAHVIRGQDGSPQIENIQPFSAKDLSIRSLGDRIRDLAQLKNLYPKKPKDEAFRSHYKPEQMGKDGRGYVPATIKMTVERDQPLPTPELQMPTMVPSYDLGMAPDSSMSMQLGPDMVPQVYPPHSHSIPPYQGLSPEESVNVLSAFQEPHLQMPPSLGQMSLPFDQPHPQGLLPCQPQEHAVSSPDPLLCSDVTMVEDSCLSQPVTAFPQGTWIGEDIFPPLLPPTEQDLTKLLLEGQGESGGGSLGAQPLLQPSHYGQSGISMSHMDLRANPSW
notes: recombinant STAT6, Abcam ab125625; also called recombinant STAT6; ab125625; source: bought: Abcam (ab125625)

Reference: PMC11110392, “A first-in-class inhibitor of HSP110 to potentiate XPO1-targeted therapy in primary mediastinal B-cell lymphoma and classical Hodgkin lymphoma” (Journal of Experimental & Clinical Cancer Research : CR, 2024)
